In the data set the test system is T1, ADAR2 R2D E488Q (dsRBD2 + deaminase domain) E488Q (Homo sapiens), P78563-2.
T1 sequence: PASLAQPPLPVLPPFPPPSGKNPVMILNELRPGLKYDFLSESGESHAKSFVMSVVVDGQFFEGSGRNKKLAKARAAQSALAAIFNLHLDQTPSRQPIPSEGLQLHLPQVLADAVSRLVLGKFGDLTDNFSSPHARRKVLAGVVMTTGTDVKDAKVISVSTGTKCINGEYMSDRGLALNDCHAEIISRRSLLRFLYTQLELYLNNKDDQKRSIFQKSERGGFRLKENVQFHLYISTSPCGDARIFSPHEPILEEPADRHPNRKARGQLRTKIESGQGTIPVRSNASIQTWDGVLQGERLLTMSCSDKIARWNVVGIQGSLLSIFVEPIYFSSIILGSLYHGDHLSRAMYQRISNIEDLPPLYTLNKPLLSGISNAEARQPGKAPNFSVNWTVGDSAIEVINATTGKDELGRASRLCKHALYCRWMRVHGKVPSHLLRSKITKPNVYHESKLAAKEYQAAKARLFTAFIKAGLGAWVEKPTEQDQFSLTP
Briefly: EMSA. The conditions noted are these: 8-azanebularine at position 13 of SEQ 7; protein 0.25-256 nM. (Mobility shift assays separate free from complexed probe on a gel.)

This is an account of results in US20260258410.

Broadly, the Kd is the equilibrium constant for the complex coming apart. As for “GCUCGCGAUGCGNGAGGGCUCUGAUAGCUACG / CGUAGCUAUCAGAGCCCCCCGGCAUCGCGAGC [32 bp GLI1 GG RNA with 8-azanebularine]”, the Kd stood at 6 nM.
